Earlier results in publication PMC7550760.

Target: His84 (UniProt position 104, ACRVNHVTLSQ)
Details: monomeric native-like protein implied; not stated

beta2-microglobulin (wild type, full length) (Homo sapiens)
pKa: 4.1

beta2-microglobulin deltaN6 variant (Homo sapiens; del1-6)
pKa: 5.9
